Test results: publication PMC2654182 (Biochemistry, 2008)

B1: GST-CstF-50 (92-431) (domain or fragment, human, UniProt Q05048 92-431, looked up)
chain: MSPEASEYETCYVTSHKGPCRVATYSRDGQLIATGSADASIKILDTERMLAKSAMPIEVMMNETAQQNMENHPVIRTLYDHVDEVTCLAFHPTEQILASGSRDYTLKLFDYSKPSAKRAFKYIQEAEMLRSISFHPSGDFILVGTQHPTLRLYDINTFQCFVSCNPQDQHTDAICSVNYNSSANMYVTGSKDGCIKLWDGVSNRCITTFEKAHDGAEVCSAIFSKNSKYILSSGKDSVAKLWEISTGRTLVRYTGAGLSGRQVHRTQAVFNHTEDYVLLPDERTISLCCWDSRTAERRNLLSLGHNNIVRCIVHSPTNPGFMTCSDDFRARFWYRRSTTD

What was measured:
[1] = target: T1, BARD1 (423-777) (human, UniProt Q99728 423-777); assay: pull-down
T1 sequence (looked up): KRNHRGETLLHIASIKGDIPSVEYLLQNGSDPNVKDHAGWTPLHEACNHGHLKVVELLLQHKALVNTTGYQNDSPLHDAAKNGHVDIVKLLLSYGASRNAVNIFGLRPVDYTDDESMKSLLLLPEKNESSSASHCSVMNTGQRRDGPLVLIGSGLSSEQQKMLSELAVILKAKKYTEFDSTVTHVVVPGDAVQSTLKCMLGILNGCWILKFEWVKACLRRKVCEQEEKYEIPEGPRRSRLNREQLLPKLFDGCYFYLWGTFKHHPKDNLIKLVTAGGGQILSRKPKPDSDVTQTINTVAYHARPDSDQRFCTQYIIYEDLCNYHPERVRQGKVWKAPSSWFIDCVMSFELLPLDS

[2] = target: B1; assay: pull-down

B1: binds [1].

B2: BARD1 (554-777) (domain or fragment, human, UniProt Q99728 554-777, looked up)
chain: ASHCSVMNTGQRRDGPLVLIGSGLSSEQQKMLSELAVILKAKKYTEFDSTVTHVVVPGDAVQSTLKCMLGILNGCWILKFEWVKACLRRKVCEQEEKYEIPEGPRRSRLNREQLLPKLFDGCYFYLWGTFKHHPKDNLIKLVTAGGGQILSRKPKPDSDVTQTINTVAYHARPDSDQRFCTQYIIYEDLCNYHPERVRQGKVWKAPSSWFIDCVMSFELLPLDS
B2: binds [2].
